The values that follow come from patent US20120058906A1 (published 2012).

Experiment [1] concerns the target T1, Recombinant Human DLL4 (R&D Systems Cat#1506-D4/CF) (human, UniProt Q9NR61 27-524).
T1 construct: Bought recombinant protein; also called delta-like protein 4
The experiment is described as follows: ECL (MSD Multi-Spot) binding, antigen spotted on plate; Fab 50 nM.

The target in experiment [2] is T2, rHuman Erythropoietin R/Fc Chimera, CF (R&D Systems Cat#963-ER) (human, UniProt P19235 25-250).
T2 construct: Bought Fc chimera; also called EPO R/Fc; erythropoietin receptor; Fc part of the bought chimera not given
T2 sequence: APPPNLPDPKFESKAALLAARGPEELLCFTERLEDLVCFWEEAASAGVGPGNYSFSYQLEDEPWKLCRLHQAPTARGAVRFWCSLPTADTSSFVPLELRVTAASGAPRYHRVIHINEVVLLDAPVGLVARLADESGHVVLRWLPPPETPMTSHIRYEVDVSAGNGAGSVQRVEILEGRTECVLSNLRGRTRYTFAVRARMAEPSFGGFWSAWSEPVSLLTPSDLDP
Described as above.

The target of experiment [3] is T3, rHuman Notch-1/Fc Chimera, CF (R&D Systems Cat#3647-TK) (human, UniProt P46531 19-526).
T3 construct: Bought Fc chimera; Fc part of the bought chimera not given
The description is as above.

The target in experiment [4] is T4, rHuman HGF R/c-MET/Fc Chimera, CF (R&D Systems Cat#358-MT/CF) (human, UniProt P08581 25-932).
T4 construct: Bought Fc chimera; also called HGF R/Fc; hepatocyte growth factor receptor; Fc part of the bought chimera not given
Described as above.

Experiment [5] concerns the target T5, rHuman P-Cadherin/Fc Chimera, CF (R&D Systems Cat#861-PC) (human, UniProt P22223 108-654).
T5 construct: Bought Fc chimera; Fc part of the bought chimera not given
Described as above.

Experiment [6] addresses T6, rHuman EGF R/Fc Chimera, CF (R&D Systems Cat#344-ER) (human, UniProt P00533 25-645).
T6 construct: Bought Fc chimera; also called epidermal growth factor receptor; Fc part of the bought chimera not given
Described as above.

The target of experiment [7] is T7, rHuman ErbB2/Fc Chimera, CF (R&D Systems Cat#1129-ER) (human, UniProt P04626 23-652).
T7 construct: Bought Fc chimera; also called human epidermal growth factor 2 receptor; HER2/neu; Fc part of the bought chimera not given
Described as above.

Experiment [8] deals with T8, rHuman IGF-1 sR, CF (R&D Systems Cat#391-GR) (human, UniProt P08069 31-932).
T8 construct: Bought soluble receptor; also called insulin-like growth factor-1 soluble receptor; IGF-R1
The description is as above.

Experiment [9] has as its target T9, rHuman CD44/Fc Chimera, CF (R&D Systems Cat#3660-CD) (human, UniProt P16070 21-220).
T9 construct: Bought Fc chimera; Fc part of the bought chimera not given
The experiment is described as above.

For experiment [10], the target named is T10, rHuman P-Cadherin/Fc Chimera, CF (R&D Systems Cat#861-PC) (human, UniProt P22223 108-654).
T10 construct: Purchased Fc chimera; not shown: Fc portion of the purchased chimera
The experiment is described as follows: MSD ECL multi-spot plate, antigen immobilized; Fab 1.6 nM; blank spot 449.

Experiment [11] deals with T11, rHuman Notch-1/Fc Chimera, CF (R&D Systems Cat#3647-TK) (human, UniProt P46531 19-526).
T11 construct: Purchased Fc chimera; not shown: Fc portion of the purchased chimera
The description is as above.

Experiment [12] has as its target T12, rHuman EGF R/Fc Chimera, CF (R&D Systems Cat#344-ER) (human, UniProt P00533 25-645).
T12 construct: Purchased Fc chimera; not shown: Fc portion of the purchased chimera
Described as above.

Experiment [13] addresses T13, Recombinant Human DLL4 (R&D Systems Cat#1506-D4/CF) (human, UniProt Q9NR61 27-524).
T13 construct: Purchased recombinant protein; also called delta-like protein 4
Described as above.

Experiment [14] deals with T14, rHuman Erythropoietin R/Fc Chimera, CF (R&D Systems Cat#963-ER) (human, UniProt P19235 25-250).
T14 construct: Purchased Fc chimera; also called EPO R/Fc; Epo R; not shown: Fc portion of the purchased chimera
T14 sequence: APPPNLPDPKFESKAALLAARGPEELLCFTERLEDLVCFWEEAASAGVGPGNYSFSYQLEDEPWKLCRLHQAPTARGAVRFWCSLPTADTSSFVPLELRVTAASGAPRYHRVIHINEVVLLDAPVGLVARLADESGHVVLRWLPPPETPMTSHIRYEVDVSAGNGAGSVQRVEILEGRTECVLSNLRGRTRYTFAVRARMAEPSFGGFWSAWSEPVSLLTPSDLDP
Described as above.

Experiment [15] concerns the target T15, rHuman HGF R/c-MET/Fc Chimera, CF (R&D Systems Cat#358-MT/CF) (human, UniProt P08581 25-932).
T15 construct: Purchased Fc chimera; also called HGF R/Fc; not shown: Fc portion of the purchased chimera
The description is as above.

The target of experiment [16] is T16, rHuman ErbB2/Fc Chimera, CF (R&D Systems Cat#1129-ER) (human, UniProt P04626 23-652).
T16 construct: Purchased Fc chimera; also called HER2/neu; not shown: Fc portion of the purchased chimera
Described as above.

Experiment [17] deals with T17, rHuman IGF-1 sR (IGF-1 sR), CF (R&D Systems Cat#391-GR) (human, UniProt P08069 31-932).
T17 construct: Purchased soluble receptor; also called insulin-like growth factor-1 soluble receptor; IGF-R1
Described as above.

In experiment [18] the target is T18, rHuman CD44/Fc Chimera, CF (R&D Systems Cat#3660-CD) (human, UniProt P16070 21-220).
T18 construct: Purchased Fc chimera; not shown: Fc portion of the purchased chimera
Described as above.
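Also: blank spot per well as comparator with Hit at signal to blank ratio of 4 or more.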

B1: Fab VH1-46_IGHD6-6*01_IGHJ1*01_S102A_S103P_S104F_H111Y & L6_IGKJ1*01 (Fab, V domains shown)
VH: QVQLVQSGAEVKKPGASVKVSCKASGYTFTSYYMHWVRQAPGQGLEWMGIINPSGGSTSYAQKFQGRVTMTRDTSTSTVYMELSSLRSEDTAVYYCAREEYAPFSAEYFQYWGQGTLVTVSS
VL: not shown
notes: Fab made in E. coli; The heavy chain also carries the CH1 with Flag and His tags of Plasmid A, and the light chain the kappa constant region of Plasmid C
B1: the ECL signal in experiment [1] was determined as 207000; in experiment [2], 631; in [3] it was 475; in [4], 325; in [5], 626; in experiment [6] it was 523. In addition, the ECL signal in experiment [7] was 589; in experiment [8], 460; in experiment [9], 433.

B2: Fab VH5-51_IGHD5-18*01>3_IGHJ4*01_G100R & V3-4_IGLJ1*01 (Fab, V domains shown)
VH: EVQLVQSGAEVKKPGESLKISCKGSGYSFTSYWIGWVRQMPGKGLEWMGIIYPGDSDTRYSPSFQGQVTISADKSISTAYLQWSSLKASDTAMYYCARRRYSYGYDYFDYWGQGTLVTVSS
VL: QTVVTQEPSFSVSPGGTVTLTCGLSSGSVSTSYYPSWYQQTPGQAPRTLIYSTNTRSSGVPDRFSGSILGNKAALTITGAQADDESDYYCVLYMGSGISYVFGTGTKVTVL
notes: It was expressed as a Fab: CH1 with tags from Plasmid A and lambda CL from Plasmid E; also called Fab No. 23
On to B2, for which the ECL signal in experiment [10] was determined as 666 ECL signal; in experiment [11], 1050 ECL signal; in [12] it was 1200 ECL signal; in [13] it was 1540 ECL signal; in [14], 920 ECL signal; in experiment [15] it was 1210 ECL signal. In addition, the ECL signal in [16] was determined as 1440 ECL signal; in experiment [17], 1330 ECL signal; in experiment [18] it was 997 ECL signal.
